Test results reported in the supplement of paper PMC10065799, “High-throughput profiling of sequence recognition by tyrosine kinases and SH2 domains using bacterial peptide display” (eLife, 2023).

Tests used:
SHP2-C SH2 = experiment: SH2 binding enrichment of the phosphorylated peptide, bacterial display (enrichment ratio); higher = better substrate or ligand; peptides without Tyr show the background
c-Src SH2 = experiment: as above
Grb2 SH2 = Grb2 SH2 (UniProt P62993); experiment: as above
c-Src = experiment: phosphorylation enrichment, bacterial display (enrichment ratio); higher = better substrate or ligand; peptides without Tyr show the background
FGFR3 = FGFR3 (UniProt P22607); experiment: as above
EPHB1 = EPHB1 (UniProt P54762); experiment: as above
Jak2 = Jak2 (UniProt O60674); experiment: as above
Fer (mouse) = experiment: as above
Fes = Fes (UniProt P07332); experiment: as above
AncSZ = experiment: as above
c-Abl (mouse) = experiment: as above
MERTK = MERTK (UniProt Q12866); experiment: as above
FGFR1 = FGFR1 (UniProt P11362); experiment: as above
EPHB2 = EPHB2 (UniProt P29323); experiment: as above
Fyn = Fyn (UniProt P06241); experiment: as above
Hck = Hck (UniProt P08631); experiment: as above
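Throughout, for SH2 binding enrichment of the phosphorylated peptide, bacterial display: peptide library displayed on the E. coli surface as eCPX fusions, selected cells deep-sequenced, score is each peptide's frequency after selection divided by its frequency in the input.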
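Throughout, for phosphorylation enrichment, bacterial display: 11-residue human phosphosite peptides and single-mutation variants displayed on the E. coli surface, counted by deep sequencing, each peptide's frequency after selection divided by its frequency in the unselected input library; frequency after pTyr selection over input frequency; kinase dosed for 20-30% of maximal phosphorylation in three min.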

Chain of FGFR3 (P22607 whole entry, looked up): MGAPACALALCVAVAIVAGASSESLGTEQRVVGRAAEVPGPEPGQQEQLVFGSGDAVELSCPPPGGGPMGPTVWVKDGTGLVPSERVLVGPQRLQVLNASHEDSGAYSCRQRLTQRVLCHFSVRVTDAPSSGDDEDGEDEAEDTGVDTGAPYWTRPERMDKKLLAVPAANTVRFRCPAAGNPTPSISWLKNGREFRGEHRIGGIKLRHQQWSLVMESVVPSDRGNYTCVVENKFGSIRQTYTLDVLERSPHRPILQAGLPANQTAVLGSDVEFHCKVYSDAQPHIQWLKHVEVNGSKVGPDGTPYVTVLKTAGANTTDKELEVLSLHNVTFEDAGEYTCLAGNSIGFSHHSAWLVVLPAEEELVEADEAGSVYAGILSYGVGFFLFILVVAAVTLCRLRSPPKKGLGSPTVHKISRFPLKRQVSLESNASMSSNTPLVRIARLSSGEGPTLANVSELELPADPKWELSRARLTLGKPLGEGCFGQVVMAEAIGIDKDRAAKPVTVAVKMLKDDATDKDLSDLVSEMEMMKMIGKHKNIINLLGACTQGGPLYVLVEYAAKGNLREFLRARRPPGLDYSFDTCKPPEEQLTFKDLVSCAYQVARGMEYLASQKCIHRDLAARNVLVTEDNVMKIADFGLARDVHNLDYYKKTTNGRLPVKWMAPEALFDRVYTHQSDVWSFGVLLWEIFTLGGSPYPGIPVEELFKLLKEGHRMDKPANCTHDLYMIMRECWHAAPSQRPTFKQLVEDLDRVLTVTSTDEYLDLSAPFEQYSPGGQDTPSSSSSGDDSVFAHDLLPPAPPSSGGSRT
Chain of EPHB2 (P29323 whole entry, looked up): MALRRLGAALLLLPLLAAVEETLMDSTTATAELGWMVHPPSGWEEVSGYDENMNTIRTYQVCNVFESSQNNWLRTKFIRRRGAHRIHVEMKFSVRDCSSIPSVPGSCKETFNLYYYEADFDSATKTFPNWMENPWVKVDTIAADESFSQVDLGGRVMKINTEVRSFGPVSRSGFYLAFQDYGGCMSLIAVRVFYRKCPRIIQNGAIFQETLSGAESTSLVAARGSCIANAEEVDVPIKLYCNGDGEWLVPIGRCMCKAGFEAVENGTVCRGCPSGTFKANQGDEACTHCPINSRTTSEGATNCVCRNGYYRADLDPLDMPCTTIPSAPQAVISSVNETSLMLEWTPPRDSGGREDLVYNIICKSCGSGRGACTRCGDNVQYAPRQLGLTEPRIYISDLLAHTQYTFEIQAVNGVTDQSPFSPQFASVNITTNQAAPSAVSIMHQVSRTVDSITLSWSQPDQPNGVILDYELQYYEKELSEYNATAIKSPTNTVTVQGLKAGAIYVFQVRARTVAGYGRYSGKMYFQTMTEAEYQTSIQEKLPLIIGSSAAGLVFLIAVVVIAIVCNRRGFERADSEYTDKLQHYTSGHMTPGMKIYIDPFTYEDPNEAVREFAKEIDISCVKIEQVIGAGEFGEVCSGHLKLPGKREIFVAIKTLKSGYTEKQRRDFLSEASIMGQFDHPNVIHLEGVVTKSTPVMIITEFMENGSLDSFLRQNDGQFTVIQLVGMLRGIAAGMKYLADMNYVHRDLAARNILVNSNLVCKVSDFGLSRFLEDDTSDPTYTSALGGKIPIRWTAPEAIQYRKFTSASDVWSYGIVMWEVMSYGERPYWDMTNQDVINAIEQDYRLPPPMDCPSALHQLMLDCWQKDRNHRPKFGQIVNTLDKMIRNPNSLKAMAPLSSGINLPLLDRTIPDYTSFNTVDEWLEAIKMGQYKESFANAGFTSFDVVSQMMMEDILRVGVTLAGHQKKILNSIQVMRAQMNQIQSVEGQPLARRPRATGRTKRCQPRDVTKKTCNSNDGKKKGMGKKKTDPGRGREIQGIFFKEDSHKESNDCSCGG
Chain of Fyn (P06241 whole entry, looked up): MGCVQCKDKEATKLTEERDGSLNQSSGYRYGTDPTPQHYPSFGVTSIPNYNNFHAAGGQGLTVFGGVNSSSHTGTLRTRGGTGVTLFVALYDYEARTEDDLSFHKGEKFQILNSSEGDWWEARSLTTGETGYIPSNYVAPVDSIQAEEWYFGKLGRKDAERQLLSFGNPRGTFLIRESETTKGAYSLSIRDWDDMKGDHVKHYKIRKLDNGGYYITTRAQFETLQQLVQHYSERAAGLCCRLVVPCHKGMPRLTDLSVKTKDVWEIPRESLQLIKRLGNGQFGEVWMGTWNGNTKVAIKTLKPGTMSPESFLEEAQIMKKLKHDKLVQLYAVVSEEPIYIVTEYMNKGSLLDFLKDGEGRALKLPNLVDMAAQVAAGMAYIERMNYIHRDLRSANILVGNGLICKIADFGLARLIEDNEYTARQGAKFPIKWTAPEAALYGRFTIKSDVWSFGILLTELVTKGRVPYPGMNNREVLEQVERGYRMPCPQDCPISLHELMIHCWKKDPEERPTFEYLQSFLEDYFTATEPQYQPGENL
Chain of EPHB1 (P54762 whole entry, looked up): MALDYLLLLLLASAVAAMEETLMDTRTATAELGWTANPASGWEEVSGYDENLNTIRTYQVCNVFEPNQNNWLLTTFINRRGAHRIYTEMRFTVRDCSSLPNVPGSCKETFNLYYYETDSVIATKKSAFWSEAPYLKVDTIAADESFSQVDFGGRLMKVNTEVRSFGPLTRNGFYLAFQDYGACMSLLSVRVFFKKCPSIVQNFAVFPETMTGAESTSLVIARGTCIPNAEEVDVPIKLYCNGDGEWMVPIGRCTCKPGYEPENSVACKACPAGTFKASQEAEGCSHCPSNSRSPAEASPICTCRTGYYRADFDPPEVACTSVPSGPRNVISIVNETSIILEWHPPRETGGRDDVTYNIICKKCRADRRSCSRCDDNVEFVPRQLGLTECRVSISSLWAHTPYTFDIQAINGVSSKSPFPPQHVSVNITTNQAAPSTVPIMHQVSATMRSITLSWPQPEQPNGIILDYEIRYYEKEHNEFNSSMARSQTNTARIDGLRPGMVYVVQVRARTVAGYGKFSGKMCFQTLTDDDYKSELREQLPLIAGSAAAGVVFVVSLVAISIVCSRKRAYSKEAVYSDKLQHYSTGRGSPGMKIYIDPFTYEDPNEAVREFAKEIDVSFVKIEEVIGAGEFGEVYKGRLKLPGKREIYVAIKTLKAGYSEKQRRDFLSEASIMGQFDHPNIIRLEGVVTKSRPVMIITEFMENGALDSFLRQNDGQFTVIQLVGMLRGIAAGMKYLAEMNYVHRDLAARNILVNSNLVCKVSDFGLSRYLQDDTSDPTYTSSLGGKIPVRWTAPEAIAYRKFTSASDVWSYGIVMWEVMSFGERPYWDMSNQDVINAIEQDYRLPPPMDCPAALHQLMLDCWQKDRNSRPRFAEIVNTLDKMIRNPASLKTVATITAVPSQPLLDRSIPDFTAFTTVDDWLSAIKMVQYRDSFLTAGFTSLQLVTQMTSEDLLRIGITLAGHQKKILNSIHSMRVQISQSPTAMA
Chain of MERTK (Q12866 whole entry, looked up): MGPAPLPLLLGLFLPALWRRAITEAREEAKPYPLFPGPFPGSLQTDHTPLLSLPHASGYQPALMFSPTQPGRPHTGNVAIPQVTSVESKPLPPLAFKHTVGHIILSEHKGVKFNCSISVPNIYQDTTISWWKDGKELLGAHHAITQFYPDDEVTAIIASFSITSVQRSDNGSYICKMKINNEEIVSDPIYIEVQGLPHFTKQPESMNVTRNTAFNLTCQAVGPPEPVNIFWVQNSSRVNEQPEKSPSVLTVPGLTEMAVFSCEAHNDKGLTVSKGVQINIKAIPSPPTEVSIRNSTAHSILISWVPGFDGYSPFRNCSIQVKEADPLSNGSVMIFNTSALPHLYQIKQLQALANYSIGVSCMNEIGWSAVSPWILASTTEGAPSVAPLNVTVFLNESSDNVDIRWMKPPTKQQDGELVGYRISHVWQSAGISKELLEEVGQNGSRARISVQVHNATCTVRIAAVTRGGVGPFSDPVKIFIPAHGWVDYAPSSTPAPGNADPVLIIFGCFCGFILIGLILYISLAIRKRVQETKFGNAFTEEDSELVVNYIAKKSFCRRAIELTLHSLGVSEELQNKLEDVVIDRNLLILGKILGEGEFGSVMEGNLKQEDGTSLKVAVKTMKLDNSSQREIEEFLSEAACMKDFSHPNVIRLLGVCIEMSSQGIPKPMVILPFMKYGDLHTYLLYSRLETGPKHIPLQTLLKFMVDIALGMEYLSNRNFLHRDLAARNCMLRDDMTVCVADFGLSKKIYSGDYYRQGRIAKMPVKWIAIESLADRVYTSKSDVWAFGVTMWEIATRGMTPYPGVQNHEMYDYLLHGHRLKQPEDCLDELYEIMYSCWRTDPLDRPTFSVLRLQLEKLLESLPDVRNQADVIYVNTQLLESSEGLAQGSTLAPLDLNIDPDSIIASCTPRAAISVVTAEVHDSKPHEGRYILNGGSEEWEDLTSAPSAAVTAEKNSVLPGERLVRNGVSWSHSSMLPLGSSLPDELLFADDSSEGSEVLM
Chain of Hck (P08631 whole entry, looked up, the tested form may be a part): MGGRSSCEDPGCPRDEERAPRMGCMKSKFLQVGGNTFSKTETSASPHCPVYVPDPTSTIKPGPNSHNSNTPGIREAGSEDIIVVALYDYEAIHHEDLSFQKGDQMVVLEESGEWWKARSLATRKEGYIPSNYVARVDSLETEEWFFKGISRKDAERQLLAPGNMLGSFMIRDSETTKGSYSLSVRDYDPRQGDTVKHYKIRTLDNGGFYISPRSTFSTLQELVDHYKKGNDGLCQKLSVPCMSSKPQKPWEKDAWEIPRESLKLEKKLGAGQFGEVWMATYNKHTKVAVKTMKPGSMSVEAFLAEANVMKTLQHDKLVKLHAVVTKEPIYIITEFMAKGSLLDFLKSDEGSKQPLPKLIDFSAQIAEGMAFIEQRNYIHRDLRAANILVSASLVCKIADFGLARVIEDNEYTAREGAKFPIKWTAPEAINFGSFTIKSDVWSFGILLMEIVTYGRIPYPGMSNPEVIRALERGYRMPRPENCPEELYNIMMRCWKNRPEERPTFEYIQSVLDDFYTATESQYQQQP

SH2 binding enrichment (SHP2-C SH2) | SH2 binding enrichment (c-Src SH2) | SH2 binding enrichment (Grb2 SH2) | Sequence | phosphorylation enrichment (c-Src) | phosphorylation enrichment (FGFR3) | phosphorylation enrichment (EPHB1) | phosphorylation enrichment (Jak2) | phosphorylation enrichment (Fer (mouse)) | phosphorylation enrichment (Fes) | phosphorylation enrichment (AncSZ) | phosphorylation enrichment (c-Abl (mouse)) | phosphorylation enrichment (MERTK) | phosphorylation enrichment (FGFR1) | phosphorylation enrichment (EPHB2) | phosphorylation enrichment (Fyn) | phosphorylation enrichment (Hck)
0.664 | 1.92 | 0.63 | HEDPMYDIIRD [RP9_Y142] | 5.36 | 0.687 | 3.51 | 1.29 | 4.2 | 1.48 | 1.94 | 1.27 | 5.24 | 0.718 | 3.85 | 5.63 | 5.56
0.981 | 0.596 | 0.91 | RGVVMYTSKDR [ZG16B_Y136_M133V] | 0.622 | 0.568 | 0.601 | 1.02 | 0.41 | 0.865 | 0.694 | 1.4 | 0.552 | 0.433 | 0.724 | 0.665 | 0.677
0.684 | 0.42 | 0.921 | LFVDVYGPSVP [NUBPL_Y109_D105Y_YF] | 1.47 | 0.709 | 0.576 | 1.17 | 0.748 | 1.34 | 1.23 | 0.717 | 0.355 | 0.482 | 0.545 | 1.16 | 1.5
1.29 | 1.79 | 1.23 | GGKYSYLKVGH [GRM3_Y480] | 0.4 | 0.536 | 0.344 | 0.604 | 0.503 | 0.616 | 0.678 | 0.666 | 0.513 | 0.404 | 0.394 | 0.497 | 0.388
0.671 | 0.497 | 0.717 | SNFRAYATEPH [TNNI3_Y29_YF] | 0.486 | 0.462 | 0.399 | 0.526 | 0.366 | 0.664 | 0.647 | 0.64 | 0.378 | 0.53 | 0.463 | 0.473 | 0.441
0.764 | 1.02 | 1.16 | RKPDIYGRLAS [MCM4_Y459_E460G] | 2.24 | 1.05 | 0.513 | 0.535 | 0.747 | 0.807 | 0.628 | 0.67 | 0.753 | 0.757 | 0.545 | 4.7 | 5.06
0.818 | 0.606 | 0.893 | SSVKLYRVYCD [FGB_Y266_P265L] | 0.525 | 0.728 | 0.618 | 0.955 | 0.531 | 1.22 | 1.06 | 0.718 | 0.459 | 0.459 | 0.634 | 0.479 | 0.603
0.779 | 0.509 | 0.611 | LRAGVYPEKDQ [DNM2_Y626] | 0.507 | 0.633 | 0.443 | 0.773 | 0.39 | 0.971 | 0.754 | 0.803 | 0.43 | 0.467 | 0.498 | 0.454 | 0.662
